Assay results: patent US20220340924

Target: T1, MYB46-GFP fusion
T1 chain: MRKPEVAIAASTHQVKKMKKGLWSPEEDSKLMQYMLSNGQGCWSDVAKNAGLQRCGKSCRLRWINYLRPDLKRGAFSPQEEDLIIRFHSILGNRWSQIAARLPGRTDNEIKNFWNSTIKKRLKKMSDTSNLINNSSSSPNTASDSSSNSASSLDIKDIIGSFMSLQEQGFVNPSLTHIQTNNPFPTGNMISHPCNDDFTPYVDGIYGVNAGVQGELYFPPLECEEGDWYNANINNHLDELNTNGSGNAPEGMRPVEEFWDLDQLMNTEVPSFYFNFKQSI

B1: CAMPK6-HA (hemagglutinin conjugated CAMPK6) (protein)
chain: MDGGSGQPAADTEMTEAPGGFPAAAPSPQMPGIENIPATLSHGGRFIQYNIFGNIFEVTAKYKPPIMPIGKGAYGIVCSAMNSETNESVAIKKIANAFDNKIDAKRTLREIKLLRHMDHENIVAIRDIIPPPLRNAFNDVYIAYELMDTDLHQIIRSNQALSEEHCQYFLYQILRGLKYIHSANVLHRDLKPSNLLLNANCDLKICDFGLARVTSESGFMTAYVVTRWYRAPELLLNSSDYTAAIDVWSVGCIFMELMDRKPLFPGRDHVHQLRLLMELIGTPSEEELEFLNENAKRYIRQLPPYPRQSITDKFPTVHPLAIDLIEKMLTFDPRRRITVLDALAHPYLNSLHDISDEPECTIPFNFDFENHALSEEQMKELIYREALAFNPEYQQ
In the case of B1, the “immunocomplex kinase assay (phosphorylation of MYB46)” value is reported as “CAMPK6 directly phosphorylates MYB46”.
